Results taken from the supplement of paper PMC6757056.
± gives the standard deviation of the averaged measurements.

B1: library; a variant is named by its letters at N, in order (parent)
chain: GCUGUCACCGGUGCUUGGUACGUUAUAUUCAGCCGGUCUGAUGAGUCUNNNNNNAGACGAAACAGC

Tests used:
(6R,S)-folinic acid [1] = variants of: B1; assay: FACS-Seq fitted mean relative fluorescence mCherry/BFP without ligand (log10 relative fluorescence); HEK293T overexpressing SLC46A1; higher = higher reporter protein expression; details: without (6R,S)-folinic acid; ligand present: no
Experimental: (§1)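 Hammerhead (sTRSV) ribozyme switch libraries with a ligand aptamer grafted on stem I and a randomized N4-6 loop II, cloned into the 3' UTR of mCherry and transiently transfected into HEK293T cells; RNA-Seq 72 h post transfection with ligand added 1 h before transfection; RNA read count / plasmid DNA read count normalized to the non-cleaving sTRSVctl (x100), log10; sequences with >100 DNA reads. FACS-Seq: lentiviral library sorted into 6 bins after 48 h ligand, log-normal fit mean of mCherry/BFP scaled to controls. Printed sequences are partial switch sequences.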

(6R,S)-folinic acid [2] = variants of: B1; assay: normalized RNA/DNA level without ligand (relative to sTRSVctl = 100) (log10 (% of sTRSVctl)); HEK293T overexpressing SLC46A1; higher = less ribozyme self-cleavage, higher mRNA level; details: without (6R,S)-folinic acid; ligand present: no
Experimental: as §1

(6R,S)-folinic acid [3] = variants of: B1; assay: FACS-Seq fitted mean relative fluorescence mCherry/BFP with ligand (log10 relative fluorescence); HEK293T overexpressing SLC46A1; ligand concentration (+) FACS-Seq: 6 mM; higher = higher reporter protein expression; details: with (6R,S)-folinic acid; ligand present: yes
Experimental: as §1

(6R,S)-folinic acid [4] = variants of: B1; assay: normalized RNA/DNA level with ligand (relative to sTRSVctl = 100) (log10 (% of sTRSVctl)); HEK293T overexpressing SLC46A1; ligand concentration (+) RNA-Seq: 6 mM; higher = less ribozyme self-cleavage, higher mRNA level; details: with (6R,S)-folinic acid; ligand present: yes
Experimental: as §1

Row | Variant | FACS-Seq fitted mean (log10) ((6R,S)-folinic acid [1]) | normalized RNA/DNA level without ligand (log10) ((6R,S)-folinic acid [2]) | FACS-Seq fitted mean (log10) ((6R,S)-folinic acid [3]) | normalized RNA/DNA level with ligand (log10) ((6R,S)-folinic acid [4])
1 | UAGCCG | 0.635 ± 0.13 | 1.86 ± 0.036 | 0.409 ± 0.069 | 1.99 ± 0.041
2 | AACCUA | -0.147 ± 0.17 | 2.0051 ± 8.4e-05 | -0.514 ± 0.18 | 2.02 ± 0.034
3 | AACCUU | 0.578 ± 0.19 | 2.044 ± 0.0052 | 0.59 ± 0.22 | 2.042 ± 0.02
4 | UACCAC | 0.907 ± 0.028 | 1.971 ± 0.0041 | 0.651 ± 0.047 | 1.994 ± 0.012
5 | AAGCCU | 0.313 ± 0.032 | 2.056 ± 0.015 | 0.326 ± 0.052 | 2.03 ± 0.027
6 | UACACA | 0.187 ± 0.0057 | 1.974 ± 0.012 | -0.044 ± 0.049 | 1.9892 ± 0.0017
7 | UACACG | 0.231 ± 0.14 | 1.808 ± 0.0037 | 0.348 ± 0.022 | 1.95 ± 0.053
8 | AACUGA | 0.445 ± 0.11 | 2.008 ± 0.0069 | 0.455 ± 0.17 | 2.02 ± 0.038
9 | AACUGG | 0.3585 ± 0.0022 | 1.936 ± 0.013 | 0.657 ± 0.038 | 2 ± 0.07
10 | CAGACA | 0.583 ± 0.12 | 2.017 ± 0.00058 | 0.769 ± 0.2 | 1.98 ± 0.02
11 | CAGACC | 0.131 ± 0.097 | 2.04 ± 0.012 | 0.261 ± 0.16 | 1.99 ± 0.031
12 | UACUAU | 0.437 ± 0.19 | 1.967 ± 0.018 | 0.489 ± 0.21 | 2.03 ± 0.023
13 | AACGCA | 0.404 ± 0.048 | 2.001 ± 0.013 | 0.533 ± 0.023 | 2 ± 0.035
14 | AACGCC | 0.452 ± 0.091 | 2.0652 ± 0.0011 | 0.336 ± 0.023 | 2.07 ± 0.046
15 | AACGCU | 0.282 ± 0.034 | 2.01 ± 0.0054 | 0.217 ± 0.34 | 2 ± 0.035
16 | CAGAGG | -0.0517 ± 0.073 | 1.9 ± 0.016 | 0.0689 ± 0.4 | 2.002 ± 0.0054
17 | UACUGC | 0.238 ± 0.013 | 2.01 ± 0.0074 | 0.329 ± 0.25 | 2.02 ± 0.049
18 | UACUGG | 0.0573 ± 0.058 | 1.65 ± 0.049 | 0.433 ± 0.099 | 1.97 ± 0.039

Row | Variant | FACS-Seq fitted mean (log10) ((6R,S)-folinic acid [1]) | normalized RNA/DNA level without ligand (log10) ((6R,S)-folinic acid [2]) | FACS-Seq fitted mean (log10) ((6R,S)-folinic acid [3]) | normalized RNA/DNA level with ligand (log10) ((6R,S)-folinic acid [4])
19 | GAGAGG | 0.109 ± 0.067 | 1.901 ± 0.012 | 0.336 ± 0.41 | 2.03 ± 0.026
20 | GAGAGA | 0.2 ± 0.041 | 1.946 ± 0.011 | 0.279 ± 0.16 | 2.01 ± 0.038
21 | GAGAGU | 0.347 ± 0.02 | 1.982 ± 0.013 | 0.471 ± 0.28 | 2.014 ± 0.0034
22 | GACAUA | 0.346 ± 0.14 | 1.984 ± 0.0071 | 0.3032 ± 0.002 | 2.01 ± 0.044
23 | GACAUU | 0.457 ± 0.096 | 2.024 ± 0.013 | 0.529 ± 0.11 | 2 ± 0.064
24 | CAGAUA | 0.631 ± 0.27 | 1.959 ± 0.008 | 0.663 ± 0.087 | 1.97 ± 0.027
25 | UAGGAC | 0.556 ± 0.12 | 1.982 ± 0.019 | 0.551 ± 0.11 | 2 ± 0.025
26 | UAGGAA | 0.503 ± 0.15 | 1.884 ± 0.01 | 0.822 ± 0.011 | 1.98 ± 0.038
27 | UACAUA | 0.329 ± 0.1 | 1.959 ± 0.012 | 0.058 ± 0.017 | 2.002 ± 0.0044
28 | UACAUG | 0.195 ± 0.2 | 1.76 ± 0.0019 | 0.236 ± 0.015 | 1.97 ± 0.019
29 | CAGAAU | 0.372 ± 0.044 | 1.921 ± 0.0042 | 0.495 ± 0.24 | 1.951 ± 0.0096
30 | CAGAAA | 0.257 ± 0.038 | 1.944 ± 0.0067 | 0.441 ± 0.2 | 1.97 ± 0.043
31 | AACCAG | 0.421 ± 0.13 | 1.966 ± 0.015 | 0.407 ± 0.2 | 2.0092 ± 0.00083
32 | AACCAU | 0.386 ± 0.012 | 1.976 ± 0.014 | 0.303 ± 0.018 | 2 ± 0.057
33 | AACCAA | 0.377 ± 0.016 | 1.989 ± 0.0067 | 0.433 ± 0.11 | 2 ± 0.028
34 | GACGGU | 0.318 ± 0.049 | 1.994 ± 0.016 | 0.486 ± 0.32 | 2.01 ± 0.029
35 | GACGGA | 0.373 ± 0.037 | 1.991 ± 0.014 | 0.557 ± 0.19 | 2.05 ± 0.033
36 | GACGGG | 0.31 ± 0.087 | 1.99 ± 0.011 | 0.302 ± 0.24 | 2.04 ± 0.051
